Blank lines part the entries; values can stand above or below the binder they belong to.
Columns and labels:
[1] = target: T1, Ins 5 type mutant CALR protein on UT-7/TPO CALR Ins 5 cells (UniProt P27797 18-417); assay: cell-based or functional assay
T1 sequence (looked up): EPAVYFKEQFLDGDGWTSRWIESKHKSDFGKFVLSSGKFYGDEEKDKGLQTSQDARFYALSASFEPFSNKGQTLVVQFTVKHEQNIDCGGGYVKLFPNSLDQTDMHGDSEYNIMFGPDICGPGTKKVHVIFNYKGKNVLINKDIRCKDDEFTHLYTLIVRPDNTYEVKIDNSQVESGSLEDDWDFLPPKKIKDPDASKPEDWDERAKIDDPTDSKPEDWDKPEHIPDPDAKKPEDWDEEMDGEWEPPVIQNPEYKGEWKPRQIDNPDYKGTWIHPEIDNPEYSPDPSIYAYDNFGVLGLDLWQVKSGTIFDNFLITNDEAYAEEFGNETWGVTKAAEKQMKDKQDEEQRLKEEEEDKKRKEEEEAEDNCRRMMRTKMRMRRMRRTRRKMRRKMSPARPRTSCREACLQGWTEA

[2] = target: T2, protein having an Fc region and a His-tag added to the N-terminus of SEQ ID NO: 1; assay: BLItz biolayer interferometry, Fc/His-SEQ ID NO: 1 protein on the biosensor
T2 construct: also called mutant CALR protein (antigen of the BLItz measurement); not shown: Fc region and His-tag at the N-terminus
T2 chain: RRMMRTKMRMRRM
Procedure: As another method, measurements were performed using the molecular interaction analysis system BLItz (ForteBio), which applies biolayer interferometry […]. Specifically, a protein having an Fc region and a His-tag added to the N-terminus of SEQ ID NO: 1 was immobilized at a concentration of 0.1 mg/mL using the Anti-Penta-HIS or ProteinA biosensor (ForteBio). Subsequently, the antibodies 1 to 114 made were prepared at a concentration of 500, 100, and 50 nM and reacted to acquire the dissociation constant.

[3] = target: T1, Ins 5 type mutant CALR protein on …; assay: cell-based or functional assay; remark: listed apart in the source

B1: Antibody 16 (bispecific antibody)
heavy: QVQLQQSGAELVKPGSSVKISCKASGYTFTRNFIHWIKQQPGNGLEWIGWIFPGDGDTEYNQKFNGKATLTADKSSSTAYMQLSSLTSEDSAVYFCARGNYNYEYFDYWGQGVMVTVSSASTKGPSVFPLAPSSKSTSGGTAALGCLVKDYFPEPVTVSWNSGALTSGVHTFPAVLQSSGLYSLSSVVTVPSSSLGTQTYICNVNHKPSNTKVDKRVEPKSCGGGGSQVQLVQSGGGVVQPGRSLRLSCKASGYTFTRYTMHWVRQAPGKGLEWIGYINPSRGYTNYNQKVKDRFTISRDNSKNTAFLQMDSLRPEDTGVYFCARYYDDHYSLDYWGQGTPVTVSSGGGGSGGGGSGGGGSDIQMTQSPSSLSASVGDRVTITCSASSSVSYMNWYQQTPGKAPKRWIYDTSKLASGVPSRFSGSGSGTDYTFTISSLQPEDIATYYCQQWSSNPFTFGQGTKLQITRHHHHHH
light: DIQMTQSPASLSASLGETVSIECLASEDIYSYLAWYQQKPGKSPQLLIFAANRLQDGVPSRFSGSGSGTQFSLKISGMQPEDEGDYFCLQGSKFPYTFGPGTKLELNRTVAAPSVFIFPPSDEQLKSGTASVVCLLNNFYPREAKVQWKVDNALQSGNSQESVTEQDSKDSTYSLSSTLTLSKADYEKHKVYACEVTHQGLSSPVTKSFNRGEC
notes: B3 Fab with hOKT3 scFv fused to the Fab heavy chain C-terminus
EC50 of cytotoxic activity (calcein release, T-LAK effector cells) [1]: 334 pM
Kd [2]: 2830 pM

B3: Antibody 19 (bispecific antibody)
heavy: QVQLQQSGAELVKPGSSVKISCKASGYTFTRNFIHWIKQQPGNGLEWIGWIFPGDGDTEYNQKFNGKATLTADKSSSTAYMQLSSLTSEDSAVYFCARGNYNYEYFDYWGQGVMVTVSSASTKGPSVFPLAPSSKSTSGGTAALGCLVKDYFPEPVTVSWNSGALTSGVHTFPAVLQSSGLYSLSSVVTVPSSSLGTQTYICNVNHKPSNTKVDKRVEPKSCGGGGSQVQLVQSGGGVVQPGRSLRLSCKASGYTFTRYTMHWVRQAPGKGLEWIGYINPSRGYTNYNQKVKDRFTISRDNSKNTAFLQMDSLRPEDTGVYFCARYYDDHYSLDYWGQGTPVTVSSGGGGSGGGGSGGGGSDIQMTQSPSSLSASVGDRVTITCSASSSVSYMNWYQQTPGKAPKRWIYDTSKLASGVPSRFSGSGSGTDYTFTISSLQPEDIATYYCQQWSSNPFTFGQGTKLQITRGGGGSQVQLQQSGAELVKPGSSVKISCKASGYTFTRNFIHWIKQQPGNGLEWIGWIFPGDGDTEYNQKFNGKATLTADKSSSTAYMQLSSLTSEDSAVYFCARGNYNYEYFDYWGQGVMVTVSSASTKGPSVFPLAPSSKSTSGGTAALGCLVKDYFPEPVTVSWNSGALTSGVHTFPAVLQSSGLYSLSSVVTVPSSSLGTQTYICNVNHKPSNTKVDKRVEPKSCHHHHHH
light: DIQMTQSPASLSASLGETVSIECLASEDIYSYLAWYQQKPGKSPQLLIFAANRLQDGVPSRFSGSGSGTQFSLKISGMQPEDEGDYFCLQGSKFPYTFGPGTKLELNRTVAAPSVFIFPPSDEQLKSGTASVVCLLNNFYPREAKVQWKVDNALQSGNSQESVTEQDSKDSTYSLSSTLTLSKADYEKHKVYACEVTHQGLSSPVTKSFNRGEC
notes: B3 Fab heavy chain, hOKT3 scFv and a second B3 Fab heavy chain in one polypeptide, with the B3 light chain
EC50 of cytotoxic activity (calcein release, T-LAK effector cells) [1]: 3710 pM
Kd [2]: 728 pM

B5: Antibody 11 (bispecific antibody)
chain: QVQLVQSGGGVVQPGRSLRLSCKASGYTFTRYTMHWVRQAPGKGLEWIGYINPSRGYTNYNQKVKDRFTISRDNSKNTAFLQMDSLRPEDTGVYFCARYYDDHYSLDYWGQGTPVTVSSGGGGSGGGGSGGGGSDIQMTQSPSSLSASVGDRVTITCSASSSVSYMNWYQQTPGKAPKRWIYDTSKLASGVPSRFSGSGSGTDYTFTISSLQPEDIATYYCQQWSSNPFTFGQGTKLQITRGGGGSQVQLQQSGAELVKPGSSVKISCKASGYTFTRNFIHWIKQQPGNGLEWIGWIFPGDGDTEYNQKFNGKATLTADKSSSTAYMQLSSLTSEDSAVYFCARGNYNYEYFDYWGQGVMVTVSSGGGGSGGGGSGGGGSDIQMTQSPASLSASLGETVSIECLASEDIYSYLAWYQQKPGKSPQLLIFAANRLQDGVPSRFSGSGSGTQFSLKISGMQPEDEGDYFCLQGSKFPYTFGPGTKLELNHHHHHH
EC50 of cytotoxic activity (calcein release, T-LAK effector cells) [1]: 1260 pM

B6: Antibody 25 (bispecific antibody)
heavy: QVQLQQSGAELVKPGSSVKISCKASGYTFTRNFIHWIKQQPGNGLEWIGWIFPGDGDTEYNQKFNGKATLTADKSSSTAYMQLSSLTSEDSAVYFCARGNYNYEYFDYWGQGVMVTVSSASTKGPSVFPLAPSSKSTSGGTAALGCLVKDYFPEPVTVSWNSGALTSGVHTFPAVLQSSGLYSLSSVVTVPSSSLGTQTYICNVNHKPSNTKVDKRVEPKSCAAAGGGQPREPQVYTLPPSREEMTKNQVSLTCLVKGFYPSDIAVEWESNGQPENNYKTTPPVLDSDGSFFLYSKLTVDKSRWQQGNVFSCSVMHEALHNHYTQKSLSLSPGK
light: QVQLVQSGGGVVQPGRSLRLSCKASGYTFTRYTMHWVRQAPGKGLEWIGYINPSRGYTNYNQKVKDRFTISRDNSKNTAFLQMDSLRPEDTGVYFCARYYDDHYSLDYWGQGTPVTVSSGGGGSGGGGSGGGGSDIQMTQSPSSLSASVGDRVTITCSASSSVSYMNWYQQTPGKAPKRWIYDTSKLASGVPSRFSGSGSGTDYTFTISSLQPEDIATYYCQQWSSNPFTFGQGTKLQITRGGGGSDIQMTQSPASLSASLGETVSIECLASEDIYSYLAWYQQKPGKSPQLLIFAANRLQDGVPSRFSGSGSGTQFSLKISGMQPEDEGDYFCLQGSKFPYTFGPGTKLELNRTVAAPSVFIFPPSDEQLKSGTASVVCLLNNFYPREAKVQWKVDNALQSGNSQESVTEQDSKDSTYSLSSTLTLSKADYEKHKVYACEVTHQGLSSPVTKSFNRGEC
EC50 of cytotoxic activity (calcein release, T-LAK effector cells) [1]: 56 pM

The next lines start with results.

Kd [2]: < 1 pM
B2: Antibody 18 (bispecific antibody)
heavy: QVQLQQSGAELVKPGSSVKISCKASGYTFTRNFIHWIKQQPGNGLEWIGWIFPGDGDTEYNQKFNGKATLTADKSSSTAYMQLSSLTSEDSAVYFCARGNYNYEYFDYWGQGVMVTVSSASTKGPSVFPLAPSSKSTSGGTAALGCLVKDYFPEPVTVSWNSGALTSGVHTFPAVLQSSGLYSLSSVVTVPSSSLGTQTYICNVNHKPSNTKVDKRVEPKSCGGGGSQVQLVQSGGGVVQPGRSLRLSCKASGYTFTRYTMHWVRQAPGKGLEWIGYINPSRGYTNYNQKVKDRFTISRDNSKNTAFLQMDSLRPEDTGVYFCARYYDDHYSLDYWGQGTPVTVSSGGGGSGGGGSGGGGSDIQMTQSPSSLSASVGDRVTITCSASSSVSYMNWYQQTPGKAPKRWIYDTSKLASGVPSRFSGSGSGTDYTFTISSLQPEDIATYYCQQWSSNPFTFGQGTKLQITRAAAGGGQPREPQVYTLPPSREEMTKNQVSLTCLVKGFYPSDIAVEWESNGQPENNYKTTPPVLDSDGSFFLYSKLTVDKSRWQQGNVFSCSVMHEALHNHYTQKSLSLSPGK
light: DIQMTQSPASLSASLGETVSIECLASEDIYSYLAWYQQKPGKSPQLLIFAANRLQDGVPSRFSGSGSGTQFSLKISGMQPEDEGDYFCLQGSKFPYTFGPGTKLELNRTVAAPSVFIFPPSDEQLKSGTASVVCLLNNFYPREAKVQWKVDNALQSGNSQESVTEQDSKDSTYSLSSTLTLSKADYEKHKVYACEVTHQGLSSPVTKSFNRGEC
notes: B3 Fab heavy chain, hOKT3 scFv and CH3 domain in one polypeptide, with the B3 light chain
EC50 of cytotoxic activity (calcein release, T-LAK effector cells) [1]: 81 pM

Kd [2]: < 1 pM
B4: Antibody 17 (bispecific antibody)
heavy: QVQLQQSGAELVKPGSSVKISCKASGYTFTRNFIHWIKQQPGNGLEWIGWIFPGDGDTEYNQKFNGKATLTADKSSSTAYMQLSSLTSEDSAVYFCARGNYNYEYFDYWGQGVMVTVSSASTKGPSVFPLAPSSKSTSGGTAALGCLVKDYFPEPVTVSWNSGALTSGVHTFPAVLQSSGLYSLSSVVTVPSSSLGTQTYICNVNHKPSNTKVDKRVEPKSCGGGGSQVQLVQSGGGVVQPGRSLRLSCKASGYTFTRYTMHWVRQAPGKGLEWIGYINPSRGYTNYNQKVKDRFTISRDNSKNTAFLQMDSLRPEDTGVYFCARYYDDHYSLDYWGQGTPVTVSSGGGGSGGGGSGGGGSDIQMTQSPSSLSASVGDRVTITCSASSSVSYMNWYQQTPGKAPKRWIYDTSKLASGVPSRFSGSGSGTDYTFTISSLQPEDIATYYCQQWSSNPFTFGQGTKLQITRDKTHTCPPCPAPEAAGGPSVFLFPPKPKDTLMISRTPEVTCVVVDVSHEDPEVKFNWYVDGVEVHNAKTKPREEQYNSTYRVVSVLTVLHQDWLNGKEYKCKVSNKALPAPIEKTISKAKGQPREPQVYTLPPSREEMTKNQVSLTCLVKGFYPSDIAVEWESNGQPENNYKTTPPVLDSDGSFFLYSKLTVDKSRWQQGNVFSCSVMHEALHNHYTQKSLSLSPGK
light: DIQMTQSPASLSASLGETVSIECLASEDIYSYLAWYQQKPGKSPQLLIFAANRLQDGVPSRFSGSGSGTQFSLKISGMQPEDEGDYFCLQGSKFPYTFGPGTKLELNRTVAAPSVFIFPPSDEQLKSGTASVVCLLNNFYPREAKVQWKVDNALQSGNSQESVTEQDSKDSTYSLSSTLTLSKADYEKHKVYACEVTHQGLSSPVTKSFNRGEC
notes: B3 Fab heavy chain, hOKT3 scFv and Fc in one polypeptide, with the B3 light chain
EC50 of cytotoxic activity (calcein release, T-LAK effector cells) [1]: 46 pM

Kd [2]: < 1 pM
B7: Antibody 85 (bispecific antibody)
chain 1: not shown
chain 2: DIQMTQSPSSLSASVGDRVTITCLASEDIYSYLAWYQQKPGKAPKLLIFAANRLQSGVPSRFSGSGSGTDFTLTISSLQPEDFATYYCLQGSKFPYTFGPGTKVDIKRTVAAPSVFIFPPSDEQLKSGTASVVCLLNNFYPREAKVQWKVDNALQSGNSQESVTEQDSKDSTYSLSSTLTLSKADYEKHKVYACEVTHQGLSSPVTKSFNRGEC
EC50 of cytotoxic activity (pM) [3]: 389 pM

— patent publication US20240092890A1 (JUNTENDO EDUCATIONAL FOUNDATION, published 2024)
